Tests used:
[1] = target: T1, recombinant human ENPP1 extracellular domain fused with a His6-FLAG tag (human); assay: ELISA, ENPP1-His coated at 50 ng/well, anti-FLAG-HRP detection
T1 construct: Expressed in Expi293 cells and purified on nickel resin; It was coated at 50 ng/well in the ELISAs and captured in biotinylated form on streptavidin biosensors in BLItz; also called ENPP1-His; rhENPP1
T1 sequence (P22413 98-925, looked up): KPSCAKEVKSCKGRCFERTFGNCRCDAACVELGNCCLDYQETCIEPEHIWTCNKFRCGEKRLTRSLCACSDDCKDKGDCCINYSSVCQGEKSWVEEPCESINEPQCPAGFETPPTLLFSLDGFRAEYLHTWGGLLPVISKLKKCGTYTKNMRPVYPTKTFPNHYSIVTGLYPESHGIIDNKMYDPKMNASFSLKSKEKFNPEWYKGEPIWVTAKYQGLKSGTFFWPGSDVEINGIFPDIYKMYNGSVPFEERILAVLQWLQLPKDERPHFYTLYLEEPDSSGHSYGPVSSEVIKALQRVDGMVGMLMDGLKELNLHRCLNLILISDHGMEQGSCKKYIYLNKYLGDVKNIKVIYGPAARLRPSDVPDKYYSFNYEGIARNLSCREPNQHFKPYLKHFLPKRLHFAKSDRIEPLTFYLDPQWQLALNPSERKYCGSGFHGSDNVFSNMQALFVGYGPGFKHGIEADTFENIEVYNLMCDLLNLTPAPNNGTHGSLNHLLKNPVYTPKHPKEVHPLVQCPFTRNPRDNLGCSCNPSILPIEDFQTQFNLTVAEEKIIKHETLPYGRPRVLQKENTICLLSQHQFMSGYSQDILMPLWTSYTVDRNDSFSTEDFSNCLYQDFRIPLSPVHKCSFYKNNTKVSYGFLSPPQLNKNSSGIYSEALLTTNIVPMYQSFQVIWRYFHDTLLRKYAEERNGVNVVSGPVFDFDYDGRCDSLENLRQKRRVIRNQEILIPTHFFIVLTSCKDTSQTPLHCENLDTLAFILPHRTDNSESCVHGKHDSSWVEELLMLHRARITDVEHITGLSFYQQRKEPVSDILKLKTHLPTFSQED
Method: (§1) The binding and specificity of Fab, scFv, and IgG1 to ENPP1 were analyzed by ELISA. Briefly, ENPP1-His protein was coated at 50 ng/well at 4° C. overnight and blocked with 5% milk for 2 hours at room temperature. After three times washing with PBST, they were incubated with 3-fold serially diluted Fab, scFv, or IgG1 for 1 hour at 37° C. For Fab and scFv detection via the FLAG tag present at the C-terminus, further incubation was performed with anti-FLAG M2-peroxidase (HRP) antibody (A8592, Sigma-Aldrich, St. Louis, MO, USA) for another 1 hour. For the IgG1, HRP-conjugated goat anti-human IgG1 Fc (Sigma-Aldrich, St. Louis, MO, USA) was used for detection.

[2] = target: T2, BSA (UniProt P02769 25-607); assay: ELISA on BSA
T2 construct: Specificity control antigen in ELISA
T2 sequence (P02769 25-607 limits assumed): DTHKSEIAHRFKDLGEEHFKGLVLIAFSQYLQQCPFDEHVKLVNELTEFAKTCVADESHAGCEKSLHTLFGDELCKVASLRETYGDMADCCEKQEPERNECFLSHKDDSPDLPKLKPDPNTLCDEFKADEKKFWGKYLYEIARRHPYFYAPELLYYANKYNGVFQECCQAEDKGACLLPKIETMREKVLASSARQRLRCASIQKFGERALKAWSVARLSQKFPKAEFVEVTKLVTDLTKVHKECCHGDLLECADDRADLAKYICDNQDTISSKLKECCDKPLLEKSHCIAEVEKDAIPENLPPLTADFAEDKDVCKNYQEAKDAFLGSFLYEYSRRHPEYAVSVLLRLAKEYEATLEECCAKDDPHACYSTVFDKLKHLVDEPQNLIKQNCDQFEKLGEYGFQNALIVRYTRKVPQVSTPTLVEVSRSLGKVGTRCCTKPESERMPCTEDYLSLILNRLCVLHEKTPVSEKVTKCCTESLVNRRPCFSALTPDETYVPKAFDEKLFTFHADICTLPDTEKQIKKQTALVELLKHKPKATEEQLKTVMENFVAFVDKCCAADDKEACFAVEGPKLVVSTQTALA

[3] = target: T1, recombinant human ENPP1 extracellular …; assay: BLItz biolayer interferometry, biotinylated ENPP1 on streptavidin biosensor
Method: (§2) The affinity and avidity of the anti-hENPP1 antibody were detected by biolayer interferometry BLItz (ForteBio, Menlo Park, CA, USA). Briefly, DPBS was used to establish a baseline for 30 seconds, and streptavidin biosensor (ForteBio) was coated with 16.7 μg/mL recombinant ENPP1-Biotin for 2 minutes. […] Antigen-coated biosensors with PBS served as a reference control. The dissociation was monitored in DPBS for 4 minutes.

[4] = target: T1, recombinant human ENPP1 extracellular …; assay: BLItz biolayer interferometry, biotinylated ENPP1 on a streptavidin biosensor
Method: as §2

[5] = target: T1, recombinant human ENPP1 extracellular …; assay: ELISA, ENPP1-His coated at 50 ng/well, anti-human IgG1 Fc-HRP detection
Method: as §1

[6] = target: T1, recombinant human ENPP1 extracellular …; assay: BLItz biolayer interferometry, biotinylated ENPP1 on streptavidin biosensor (avidity, bivalent IgG1)
Method: as §2

Row | Binder | EC50 [1] [nM] | binding result [2] | Kd [3] [nM] | koff [3] [s⁻¹] | kon [3] [M⁻¹ s⁻¹] | koff [4] [s⁻¹] | kon [4] [M⁻¹ s⁻¹] | EC50 [5] [nM] | Kd [6] [nM] | koff [6] [s⁻¹] | kon [6] [M⁻¹ s⁻¹]
1 | scFv 17 (scFv, VL-(G4S)3-VH orientation; Expressed in E. coli; also called scFv format antibody 17; not shown: C-terminal FLAG tag used for detection; The protein was purified on Ni-NTA) scFv: DIQMTQSPSSLSASVGDRVTITCRASQSISSYLNWYQQKPGKAPKLLIYAASSLQSGVPSRFSGSGSGTDFTLTISSLQPEDAATYYCQQYDTFPLTFGGGTKVEIKGGGGSGGGGSGGGGSQVQLVESGGGLVKPGGSLRLSCAASGFTFSDYYMSWIRQAPGKGLEWVSYISSSGSTIYYADSVKGRFTISRDNAKNSLYLQMNSLRAEDTAVYYCAREVYYYDSSGYYTYYFDYWGQGTLVTVSS | 6.4 | – | – | – | – | – | – | – | – | – | –
2 | scFv 3G12 (scFv, VL-(G4S)3-VH orientation; Expressed in E. coli; also called scFv format antibody 3G12; not shown: C-terminal FLAG tag used for detection; The protein was purified on Ni-NTA) scFv: DIQMTQSPSSLSASVGDRVTITCRASQSISSYLNWYQQKPGKAPKLLIYAASSLQSGVPSRFSGSGSGTDFTLTISSLQPEDVAVYYCQQYYTSRITFGQGTKLEIKGGGGSGGGGSGGGGSQVQLVESGGGLVKPGGSLRLSCAASGFTFSDYYMSWIRQAPGKGLEWVSYISSSGSTIYYADSVKGRFTISRDNAKNSLYLQMNSLRAEDTAVYYCAREVYYYDSSGYYTYYFDYWGQGTLVTVSS | 52.2 | – | – | – | – | – | – | – | – | – | –
3 | Fab 17 (Fab, V domains shown, Human Fab from a phage library, expressed in E. coli and purified on Ni-NTA; also called 17-Fab; Clone #1 (Fab)) VH: QVQLVESGGGLVKPGGSLRLSCAASGFTFSDYYMSWIRQAPGKGLEWVSYISSSGSTIYYADSVKGRFTISRDNAKNSLYLQMNSLRAEDTAVYYCAREVYYYDSSGYYTYYFDYWGQGTLVTVSS VL: DIQMTQSPSSLSASVGDRVTITCRASQSISSYLNWYQQKPGKAPKLLIYAASSLQSGVPSRFSGSGSGTDFTLTISSLQPEDAATYYCQQYDTFPLTFGGGTKVEIKR | 13.9 | no binding | 61.4 | 0.0044 | 72000 | 0.00441 | 71800 | – | – | – | –
4 | IgG1 17 (antibody, V domains shown, also called hIgG1 17; IgG 17) VH: QVQLVESGGGLVKPGGSLRLSCAASGFTFSDYYMSWIRQAPGKGLEWVSYISSSGSTIYYADSVKGRFTISRDNAKNSLYLQMNSLRAEDTAVYYCAREVYYYDSSGYYTYYFDYWGQGTLVTVSS VL: DIQMTQSPSSLSASVGDRVTITCRASQSISSYLNWYQQKPGKAPKLLIYAASSLQSGVPSRFSGSGSGTDFTLTISSLQPEDAATYYCQQYDTFPLTFGGGTKVEIKR | – | – | – | – | – | – | – | 0.14 | 6.7 | 0.0042 | 630000
5 | Fab 3G12 (Fab, V domains shown, Same heavy chain as Fab 17, different light chain; Expressed in E. coli and purified on Ni-NTA; also called 3G12-Fab; Clone #2 (Fab)) VH: QVQLVESGGGLVKPGGSLRLSCAASGFTFSDYYMSWIRQAPGKGLEWVSYISSSGSTIYYADSVKGRFTISRDNAKNSLYLQMNSLRAEDTAVYYCAREVYYYDSSGYYTYYFDYWGQGTLVTVSS VL: DIQMTQSPSSLSASVGDRVTITCRASQSISSYLNWYQQKPGKAPKLLIYAASSLQSGVPSRFSGSGSGTDFTLTISSLQPEDVAVYYCQQYYTSRITFGQGTKLEIKR | 2.6 | no binding | 35.5 | 0.0018 | 52000 | 0.00184 | 51900 | – | – | – | –
6 | IgG1 3G12 (antibody, V domains shown, Bivalent human IgG1 converted from Fab 3G12, expressed in Expi293 cells and purified on Protein A; also called hIgG1 3G12) VH: QVQLVESGGGLVKPGGSLRLSCAASGFTFSDYYMSWIRQAPGKGLEWVSYISSSGSTIYYADSVKGRFTISRDNAKNSLYLQMNSLRAEDTAVYYCAREVYYYDSSGYYTYYFDYWGQGTLVTVSS VL: DIQMTQSPSSLSASVGDRVTITCRASQSISSYLNWYQQKPGKAPKLLIYAASSLQSGVPSRFSGSGSGTDFTLTISSLQPEDVAVYYCQQYYTSRITFGQGTKLEIKR | – | – | – | – | – | – | 516000 | 0.24 | 4.2 | 0.0021 | 520000
